Data on 4 molecules can be found in patent US20190185581A1 (University of California, published 2019).

The labels stand for the following.
B1: Fab 33D2 (Fab, V domains shown)
VH: EVQLVESGGGLVQPGGSLRLSCAASGFNLYYSSIHWVRQAPGKGLEWVAYISSYSGYTSYADSVKGRFTISADTSKNTAYLQMNSLRAEDTAVYYCARSKYGPASRQLASRTSWSGPRGKYGMDYWGQGTLVTVSS
VL: DIQMTQSPSSLSASVGDRVTITCRASQSVSSAVAWYQQKPGKAPKLLIYSASSLYSGVPSRFSGSRSGTDFTLTISSLQPEDFATYYCQQAYGSYLITFGQGTKVEIKR
notes: not shown: His tag at the C-terminus of the heavy chain
B2: MMP-14 catalytic domain mutant F260A (enzyme)
chain: not shown
notes: also called F260A MMP-14 mutant
B3: Fab 3A2 (Fab, V domains shown)
VH: EVQLVESGGGLVQPGGSLRLSCAASGFNLSSSSMHWVRQAPGKGLEWVASIYPSYSYTYYADSVKGRFTISADTSKNTAYLQMNSLRAEDTAVYYCARVKLQKDKSHQWIRNLVATPYGRYVMDYWGQGTLVTVSS
VL: DIQMTQSPSSLSASVGDRVTITCRASQSVSSAVAWYQQKPGKAPKLLIYSASSLYSGVPSRFSGSRSGTDFTLTISSLQPEDFATYYCQQYGYPITFGQGTKVEIKR
notes: also called R3C9; not shown: His tag at the C-terminus of the heavy chain
B4: Fab R2C14 (Fab, V domains shown)
VH: EVQLVESGGGLVQPGGSLRLSCAASGFNIYSSSIHWVRQAPGKGLEWVASIYSYSGYTYYADSVKGRFTISADTSKNTAYLQMNSLRAEDTAVYYCARVSNRYNRSSASIAGLQLFRPYGMDYWGQGTLVTVSS
VL: DIQMTQSPSSLSASVGDRVTITCRASQSVSSAVAWYQQKPGKAPKLLIYSASSLYSGVPSRFSGSRSGTDFTLTISSLQPEDFATYYCQQSSYSLITFGQGTKVEIKR

In assay [1] the target is T1, catalytic domain of MMP-14 (cdMMP-14) (human, UniProt P50281 114-287, limits assumed, biotinylated (Sulfo-NHS-LC-Biotin) where immobilised via streptavidin). Description: cell-based or functional assay.
The target in assay [2] is T2, catalytic domain of MMP-9 (cdMMP-9) (human, UniProt P14780 107-443, limits assumed).
T2 sequence: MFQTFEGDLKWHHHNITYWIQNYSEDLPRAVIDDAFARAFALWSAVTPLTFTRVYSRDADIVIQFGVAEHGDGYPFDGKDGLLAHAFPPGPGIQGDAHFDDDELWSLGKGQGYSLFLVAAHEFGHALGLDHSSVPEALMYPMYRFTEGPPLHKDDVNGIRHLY
Description: ELISA on MMP-2, MMP-9 and MMP-14 catalytic domains. On the technique in general: An ELISA detects its analyte on a solid surface through an enzyme-linked reagent.

The target of assay [3] is T1, catalytic domain of MMP-14 (cdMMP-14). Briefly: ELISA, Fab titrated on immobilised MMP-14 catalytic domain, anti-Fab-HRP.
Description: (§1) Bound Fabs were detected using the anti-Fab-HRP conjugate. The half-maximal effective concentration (EC₅₀) was calculated from a four-parametric logistic curve-fitting analysis.
For assay [4], the target named is B3. Briefly: competitive ELISA: 10 nM Fab 3A2 pre-incubated with soluble MMP-14 mutant, then captured on immobilised wild-type MMP-14; anti-Fab-HRP.
Description: as §1
Assay [5] has as its target B2. Briefly: competitive ELISA: 10 nM Fab 3A2 incubated with the mutant, then captured on immobilised wild-type MMP-14.
Description: as §1
The target in assay [6] is T1, catalytic domain of MMP-14 (cdMMP-14). Description: cell-based or functional assay. This is another data set of the same source.
For assay [7] the target is unchanged. Description: surface plasmon resonance (Biacore), MMP-14 immobilised on the chip, Fab 3A2 injected at 20 nM; table beside the sensorgrams. Background: Surface plasmon resonance follows binding to a sensor surface in real time, without labels.
Assay [8] addresses catalytic domain of MMP-2 (human, UniProt P08253 115-449, limits assumed, biotinylated (Sulfo-NHS-LC-Biotin)). Briefly: ELISA, purified Fab at 50, 100, 250 and 500 nM on immobilised MMP catalytic domain, anti-Fab-HRP, OD450.
In assay [9] the target is T2, catalytic domain of MMP-9 (cdMMP-9). Described as above.
In assay [10] the target is T1, catalytic domain of MMP-14 (cdMMP-14). Description: SPR (Biacore), KD from koff/kon.
Assay [11] shares this target. Description: SPR (Biacore), MMP-14 amine-coupled to the chip, Fab as analyte, 25 °C.
The target is the same in assay [12]. Briefly: surface plasmon resonance (Biacore), MMP-14 immobilised on the chip, Fab 3A2 injected at 15 nM; table beside the sensorgrams.
Assay [13] shares this target. Briefly: summary sentence on the Examples; enzyme inhibition.
Assay [14] shares this target. Briefly: summary sentence on the Examples; method not given.
Assay [15] has the same target. Description: surface plasmon resonance (Biacore), MMP-14 immobilised on the chip, Fab 3A2 injected at 10 nM; table beside the sensorgrams.
In assay [16] the target is MMP-14 catalytic domain mutant F198A (human, UniProt P50281 114-287, limits assumed). Description: cell-based or functional assay.
The target in assay [17] is MMP-14 catalytic domain mutant F204A (human, UniProt P50281 114-287, limits assumed). Briefly: cell-based or functional assay.
The target of assay [18] is B2. Description: cell-based or functional assay.
Assay [19] concerns the target MMP-14 catalytic domain mutant T190A (human, UniProt P50281 114-287, limits assumed). Briefly: cell-based or functional assay.
Assay [20] concerns the target MMP-14 catalytic domain mutant Y203A (human, UniProt P50281 114-287, limits assumed). Briefly: cell-based or functional assay.
The target in assay [21] is MMP-14 catalytic domain mutant N231A (human, UniProt P50281 114-287, limits assumed). Description: cell-based or functional assay.
For assay [22], the target named is T1, catalytic domain of MMP-14 (cdMMP-14). Description: ELISA, Fab titrated on immobilised biotin-cdMMP-14, anti-Fab-HRP.
Assay [23] deals with T2, catalytic domain of MMP-9 (cdMMP-9). Description: competitive ELISA: Fab R2C14 at its IC50 concentration pre-incubated with soluble cdMMP-9, then added to a plate coated with 100 nM cdMMP-14; anti-Fab-HRP.

catalytic domain of MMP-2, sequence (P08253 other isoform, or with tags, fused parts or gaps limits assumed): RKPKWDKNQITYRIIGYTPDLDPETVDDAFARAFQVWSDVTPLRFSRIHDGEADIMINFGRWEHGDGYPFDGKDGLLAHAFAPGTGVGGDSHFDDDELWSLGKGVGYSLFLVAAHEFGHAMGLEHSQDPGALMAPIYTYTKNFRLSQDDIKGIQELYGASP

B1: the “IC50 by FRET Assay” value in assay [1] amounted to 420 nM. Besides, the “Selectivity over MMP-2/-9 (ratio of Fab concentrations giving the same ELISA signal, MMP-2/-9 against MMP-14)” value in [2] was 9.6 fold. Further, the EC50 – broadly, the midpoint of the concentration-response curve – in assay [3] amounted to 120 nM.

Turning to B2, the binding result in assay [4] is “no binding (tested: about 2000 nM (log10(nM) 3.3))”.

Take B3: the values for the binding result in assay [5], in assay [8] and in assay [9] were “no binding (tested: 0-2,000 nM mutant)”, “no binding (tested: 500 nM)” and “no binding (tested: 500 nM)”, respectively. In addition, the “IC50 by FRET Assay” value in assay [1] amounted to 9.7 nM. Moreover, in [6], the “Inhibition potency (FRET IC50)” value stood at 9.7 nM. Also, the Kd (commonly the constant that tells how readily two partners part at equilibrium) is 9.17 nM in assay [7]; 4.76 nM in [10]; 3.64 nM in [12]; 4.85 nM in [14]; 1.74 nM in assay [15]. Further, the koff (as a rule, the rate constant with which the complex falls apart) is 0.00347 s⁻¹ in assay [7], 0.00179 s⁻¹ in assay [11], 0.00125 s⁻¹ in [12] and 0.000667 s⁻¹ in [15]. The kon (as a rule, the rate constant with which the complex forms) turned out to be 378000 M⁻¹ s⁻¹ in assay [7], 368000 M⁻¹ s⁻¹ in assay [11], 344000 M⁻¹ s⁻¹ in assay [12] and 383000 M⁻¹ s⁻¹ in assay [15]. The Ki (in general, a measure of affinity in units of concentration, obtained from inhibition or displacement) in assay [13] was determined as 10 nM. For the same molecule, the EC50 in [3] and in assay [22] was 3.8 nM throughout. The “inhibition (%) of peptide cleavage: 50 nM MMP-14 mutant, 5 uM Fab 3A2, 1 uM quenched fluorescent substrate” value worked out at 98% in [16]; 96% in assay [17]; 0% in assay [18]; 95% in [19]; 98% in [20]; 90% in assay [21].

On to B4, for which the “Inhibition potency (FRET IC50)” value in [6] amounted to 10 nM. Besides, in assay [23], the binding result is “no binding (tested: about 4000 nM (log10(nM) about 3.6))”. This molecule registered a concentration giving a half-maximal response (EC50) in [22] of 1200 nM.
